Laboratory results reported in the supplement of paper PMC10065799, “High-throughput profiling of sequence recognition by tyrosine kinases and SH2 domains using bacterial peptide display” (eLife, 2023).

biological target: EPHB2 (UniProt P29323); experiment: phosphorylation enrichment, bacterial display (enrichment ratio); higher = better substrate or ligand; peptides without Tyr show the background
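Also: 11-residue human phosphosite peptides and single-mutation variants displayed on the E. coli surface, counted by deep sequencing, each peptide's frequency after selection divided by its frequency in the unselected input library; frequency after pTyr selection over input frequency; kinase dosed for 20-30% of maximal phosphorylation in three min.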

EPHB2, sequence (P29323 whole entry, looked up): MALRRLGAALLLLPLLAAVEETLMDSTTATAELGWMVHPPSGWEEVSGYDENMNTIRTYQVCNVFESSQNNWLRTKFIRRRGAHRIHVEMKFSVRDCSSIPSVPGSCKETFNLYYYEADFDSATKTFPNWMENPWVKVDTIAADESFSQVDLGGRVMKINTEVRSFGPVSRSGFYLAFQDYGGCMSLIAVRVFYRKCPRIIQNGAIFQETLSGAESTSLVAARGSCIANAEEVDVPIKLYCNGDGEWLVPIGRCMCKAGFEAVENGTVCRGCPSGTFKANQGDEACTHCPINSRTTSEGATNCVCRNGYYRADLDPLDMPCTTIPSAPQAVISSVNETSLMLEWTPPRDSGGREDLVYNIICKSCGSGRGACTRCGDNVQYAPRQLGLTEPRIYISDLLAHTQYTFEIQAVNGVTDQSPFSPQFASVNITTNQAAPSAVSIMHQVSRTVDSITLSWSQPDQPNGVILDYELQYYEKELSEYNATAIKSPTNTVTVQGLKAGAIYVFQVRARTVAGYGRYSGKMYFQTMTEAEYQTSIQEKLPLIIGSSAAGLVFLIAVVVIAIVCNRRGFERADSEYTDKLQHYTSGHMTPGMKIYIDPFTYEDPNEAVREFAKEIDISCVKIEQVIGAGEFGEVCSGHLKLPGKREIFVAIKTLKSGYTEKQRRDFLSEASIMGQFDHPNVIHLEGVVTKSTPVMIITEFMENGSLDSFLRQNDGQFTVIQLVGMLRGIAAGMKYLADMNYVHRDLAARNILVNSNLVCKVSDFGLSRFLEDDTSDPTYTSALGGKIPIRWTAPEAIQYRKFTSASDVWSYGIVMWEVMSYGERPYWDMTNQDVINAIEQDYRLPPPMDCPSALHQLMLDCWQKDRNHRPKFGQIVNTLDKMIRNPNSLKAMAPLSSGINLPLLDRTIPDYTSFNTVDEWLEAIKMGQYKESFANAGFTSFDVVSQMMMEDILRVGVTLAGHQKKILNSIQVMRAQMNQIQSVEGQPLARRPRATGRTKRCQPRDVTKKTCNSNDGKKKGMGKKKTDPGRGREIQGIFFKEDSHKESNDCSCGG

| Sequence | phosphorylation enrichment |
| --- | --- |
| FRNSLYAPDYS [FAM92A_Y226] | 0.775 |
| IEPGIYIPEDD [XPNPEP3_Y455] | 0.523 |
| QTPVLYAMLYH [MPZ_Y220_D224Y] | 6.54 |
| RGDCMYASLLG [AR_Y269_P271S] | 1.49 |
| EWLRRYLENGK [HLA-A_Y195] | 0.456 |
| RYLKDYGEFEV [GINS1_Y156_C152Y] | 0.839 |
| QKPLGYFRVNL [GALE_Y104_D103G_YF] | 0.635 |
| TDEYEYDELIV [TGM1_Y136] | 0.566 |
| PVQAAYPKVVA [HBB_Y131_Q132P] | 0.542 |
| GRSTYYWPRPR [GAGE12J_Y10] | 0.507 |
| IMAFFYMCDSA [CASD1_Y382_R386S_YF] | 0.782 |
| IPGGIYDADLN [CST4_Y35] | 0.649 |
| MARDISRASFF [ALK_Y1278_Y1278S_YF] | 0.467 |
| GTSLIYWTLFT [G6PC3_Y214] | 2.09 |
| TSFSGYRFHRH [NKAPL_Y94_YF] | 0.471 |
| MHYSNYVSKGS [PDGFRA_Y849_D846Y] | 0.472 |
| NAPNSYGRRLI [CDKN2A_Y44_P48L] | 0.454 |

| Sequence | phosphorylation enrichment |
| --- | --- |
| NHFKIHNLCAE [PTEN_Y68_Y68H_YF] | 0.374 |
| FPPISYLNAIS [MVD_Y276] | 0.472 |
| YRDALYKFIVD [PHEX_Y250_M253I] | 1.02 |
| KIVFVYVKKRS [DNAI2_Y7_E2K_YF] | 0.48 |
| DTLMEYLENPK [CYCS_Y68] | 0.682 |
| LVTRSYLLGNS [LMNA_Y646] | 0.68 |
| MIRSAYALGGL [CPS1_Y590] | 0.435 |
| GLRFGYGGLGG [KRTAP20-2_Y15_V17G_YF] | 0.467 |
| EKSREYDRLFE [PIK3R1_Y463_YF] | 0.602 |
| YSKTQYNQVPR [CXADR_Y318_S323R] | 0.431 |
| LPIQTYSALNF [DES_Y423] | 11.7 |
| NGSKAYAYVHF [PABPC5_Y147_G146A] | 0.52 |
| INQGPYENRSV [ATP6V1B1_Y462] | 0.568 |
| GSRGKYSSGFC [ATM_Y332_R337C] | 0.406 |
| KGEDFYSVTCH [FHL1_Y149_C150S] | 0.632 |
| ILQSMYGCDVG [HLA-B_Y123_T118I] | 0.51 |

tested on: c-Abl (mouse); experiment: as above

| Sequence | phosphorylation enrichment |
| --- | --- |
| FRNSLYAPDYS [FAM92A_Y226] | 0.493 |
| IEPGIYIPEDD [XPNPEP3_Y455] | 1.05 |
| QTPVLYAMLYH [MPZ_Y220_D224Y] | 2.58 |
| RGDCMYASLLG [AR_Y269_P271S] | 1.42 |
| EWLRRYLENGK [HLA-A_Y195] | 0.581 |
| RYLKDYGEFEV [GINS1_Y156_C152Y] | 0.771 |
| QKPLGYFRVNL [GALE_Y104_D103G_YF] | 0.67 |
| TDEYEYDELIV [TGM1_Y136] | 0.705 |
| PVQAAYPKVVA [HBB_Y131_Q132P] | 0.501 |
| GRSTYYWPRPR [GAGE12J_Y10] | 0.93 |
| IMAFFYMCDSA [CASD1_Y382_R386S_YF] | 1.11 |
| IPGGIYDADLN [CST4_Y35] | 1.14 |
| MARDISRASFF [ALK_Y1278_Y1278S_YF] | 0.545 |
| GTSLIYWTLFT [G6PC3_Y214] | 11.2 |
| TSFSGYRFHRH [NKAPL_Y94_YF] | 0.601 |
| MHYSNYVSKGS [PDGFRA_Y849_D846Y] | 0.432 |
| NAPNSYGRRLI [CDKN2A_Y44_P48L] | 0.48 |

| Sequence | phosphorylation enrichment |
| --- | --- |
| NHFKIHNLCAE [PTEN_Y68_Y68H_YF] | 0.367 |
| FPPISYLNAIS [MVD_Y276] | 0.664 |
| YRDALYKFIVD [PHEX_Y250_M253I] | 0.916 |
| KIVFVYVKKRS [DNAI2_Y7_E2K_YF] | 0.576 |
| DTLMEYLENPK [CYCS_Y68] | 0.95 |
| LVTRSYLLGNS [LMNA_Y646] | 1.14 |
| MIRSAYALGGL [CPS1_Y590] | 0.417 |
| GLRFGYGGLGG [KRTAP20-2_Y15_V17G_YF] | 0.455 |
| EKSREYDRLFE [PIK3R1_Y463_YF] | 0.784 |
| YSKTQYNQVPR [CXADR_Y318_S323R] | 0.465 |
| LPIQTYSALNF [DES_Y423] | 1.59 |
| NGSKAYAYVHF [PABPC5_Y147_G146A] | 0.634 |
| INQGPYENRSV [ATP6V1B1_Y462] | 0.475 |
| GSRGKYSSGFC [ATM_Y332_R337C] | 0.611 |
| KGEDFYSVTCH [FHL1_Y149_C150S] | 0.899 |
| ILQSMYGCDVG [HLA-B_Y123_T118I] | 0.546 |

biological target: FGFR3 (UniProt P22607); experiment: as above
Sequence (P22607 whole entry, looked up): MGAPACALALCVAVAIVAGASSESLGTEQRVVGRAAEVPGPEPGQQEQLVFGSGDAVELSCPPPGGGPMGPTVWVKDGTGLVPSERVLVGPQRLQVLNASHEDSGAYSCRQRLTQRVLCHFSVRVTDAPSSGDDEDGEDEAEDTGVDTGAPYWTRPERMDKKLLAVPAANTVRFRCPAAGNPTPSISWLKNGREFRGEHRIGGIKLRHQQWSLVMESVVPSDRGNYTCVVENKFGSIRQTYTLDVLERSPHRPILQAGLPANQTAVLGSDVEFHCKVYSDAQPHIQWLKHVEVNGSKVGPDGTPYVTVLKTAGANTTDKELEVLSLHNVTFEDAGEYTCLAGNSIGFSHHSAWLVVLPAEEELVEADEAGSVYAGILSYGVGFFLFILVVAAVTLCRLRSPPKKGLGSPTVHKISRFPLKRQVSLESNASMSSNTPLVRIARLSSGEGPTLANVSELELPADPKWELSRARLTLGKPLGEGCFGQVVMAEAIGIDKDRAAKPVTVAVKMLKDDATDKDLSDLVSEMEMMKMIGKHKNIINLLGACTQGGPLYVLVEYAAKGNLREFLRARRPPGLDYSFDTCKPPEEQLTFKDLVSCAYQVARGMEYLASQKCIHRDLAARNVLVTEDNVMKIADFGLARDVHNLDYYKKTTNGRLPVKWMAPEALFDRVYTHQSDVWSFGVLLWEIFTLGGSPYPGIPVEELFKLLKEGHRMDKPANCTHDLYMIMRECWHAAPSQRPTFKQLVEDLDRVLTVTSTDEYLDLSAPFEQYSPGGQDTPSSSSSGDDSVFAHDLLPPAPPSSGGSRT

| Sequence | phosphorylation enrichment |
| --- | --- |
| FRNSLYAPDYS [FAM92A_Y226] | 0.619 |
| IEPGIYIPEDD [XPNPEP3_Y455] | 0.902 |
| QTPVLYAMLYH [MPZ_Y220_D224Y] | 4.53 |
| RGDCMYASLLG [AR_Y269_P271S] | 1.52 |
| EWLRRYLENGK [HLA-A_Y195] | 0.498 |
| RYLKDYGEFEV [GINS1_Y156_C152Y] | 1.36 |
| QKPLGYFRVNL [GALE_Y104_D103G_YF] | 0.722 |
| TDEYEYDELIV [TGM1_Y136] | 0.805 |
| PVQAAYPKVVA [HBB_Y131_Q132P] | 0.503 |
| GRSTYYWPRPR [GAGE12J_Y10] | 0.481 |
| IMAFFYMCDSA [CASD1_Y382_R386S_YF] | 1.12 |
| IPGGIYDADLN [CST4_Y35] | 0.836 |
| MARDISRASFF [ALK_Y1278_Y1278S_YF] | 0.473 |
| GTSLIYWTLFT [G6PC3_Y214] | 4.45 |
| TSFSGYRFHRH [NKAPL_Y94_YF] | 0.677 |
| MHYSNYVSKGS [PDGFRA_Y849_D846Y] | 0.397 |
| NAPNSYGRRLI [CDKN2A_Y44_P48L] | 0.509 |

| Sequence | phosphorylation enrichment |
| --- | --- |
| NHFKIHNLCAE [PTEN_Y68_Y68H_YF] | 0.441 |
| FPPISYLNAIS [MVD_Y276] | 0.522 |
| YRDALYKFIVD [PHEX_Y250_M253I] | 1.38 |
| KIVFVYVKKRS [DNAI2_Y7_E2K_YF] | 0.731 |
| DTLMEYLENPK [CYCS_Y68] | 0.905 |
| LVTRSYLLGNS [LMNA_Y646] | 0.939 |
| MIRSAYALGGL [CPS1_Y590] | 0.473 |
| GLRFGYGGLGG [KRTAP20-2_Y15_V17G_YF] | 0.53 |
| EKSREYDRLFE [PIK3R1_Y463_YF] | 0.577 |
| YSKTQYNQVPR [CXADR_Y318_S323R] | 0.532 |
| LPIQTYSALNF [DES_Y423] | 2.07 |
| NGSKAYAYVHF [PABPC5_Y147_G146A] | 0.646 |
| INQGPYENRSV [ATP6V1B1_Y462] | 0.441 |
| GSRGKYSSGFC [ATM_Y332_R337C] | 0.539 |
| KGEDFYSVTCH [FHL1_Y149_C150S] | 0.942 |
| ILQSMYGCDVG [HLA-B_Y123_T118I] | 0.624 |

tested on: Fer (mouse); experiment: as above

| Sequence | phosphorylation enrichment |
| --- | --- |
| FRNSLYAPDYS [FAM92A_Y226] | 0.555 |
| IEPGIYIPEDD [XPNPEP3_Y455] | 0.576 |
| QTPVLYAMLYH [MPZ_Y220_D224Y] | 8.03 |
| RGDCMYASLLG [AR_Y269_P271S] | 1.1 |
| EWLRRYLENGK [HLA-A_Y195] | 0.36 |
| RYLKDYGEFEV [GINS1_Y156_C152Y] | 1 |
| QKPLGYFRVNL [GALE_Y104_D103G_YF] | 0.399 |
| TDEYEYDELIV [TGM1_Y136] | 0.526 |
| PVQAAYPKVVA [HBB_Y131_Q132P] | 0.261 |
| GRSTYYWPRPR [GAGE12J_Y10] | 0.504 |
| IMAFFYMCDSA [CASD1_Y382_R386S_YF] | 0.805 |
| IPGGIYDADLN [CST4_Y35] | 0.611 |
| MARDISRASFF [ALK_Y1278_Y1278S_YF] | 0.392 |
| GTSLIYWTLFT [G6PC3_Y214] | 1.68 |
| TSFSGYRFHRH [NKAPL_Y94_YF] | 0.384 |
| MHYSNYVSKGS [PDGFRA_Y849_D846Y] | 0.458 |
| NAPNSYGRRLI [CDKN2A_Y44_P48L] | 0.475 |

| Sequence | phosphorylation enrichment |
| --- | --- |
| NHFKIHNLCAE [PTEN_Y68_Y68H_YF] | 0.384 |
| FPPISYLNAIS [MVD_Y276] | 0.408 |
| YRDALYKFIVD [PHEX_Y250_M253I] | 0.759 |
| KIVFVYVKKRS [DNAI2_Y7_E2K_YF] | 0.478 |
| DTLMEYLENPK [CYCS_Y68] | 0.677 |
| LVTRSYLLGNS [LMNA_Y646] | 0.85 |
| MIRSAYALGGL [CPS1_Y590] | 0.32 |
| GLRFGYGGLGG [KRTAP20-2_Y15_V17G_YF] | 0.368 |
| EKSREYDRLFE [PIK3R1_Y463_YF] | 0.437 |
| YSKTQYNQVPR [CXADR_Y318_S323R] | 0.471 |
| LPIQTYSALNF [DES_Y423] | 11.1 |
| NGSKAYAYVHF [PABPC5_Y147_G146A] | 0.637 |
| INQGPYENRSV [ATP6V1B1_Y462] | 0.4 |
| GSRGKYSSGFC [ATM_Y332_R337C] | 0.401 |
| KGEDFYSVTCH [FHL1_Y149_C150S] | 3.47 |
| ILQSMYGCDVG [HLA-B_Y123_T118I] | 0.48 |
